Test results taken from US20240366788A1 (DUKE UNIVERSITY, published 2024).

Target: T1, H2-Q7 (QA2), GPI-anchored MHC class Ib molecule on murine T cells (mouse, UniProt P14429 22-334; P01887 21-119)
T1 construct: whole, on cells; also called H2-Q7/MHC-I
T1 sequence (MHC heavy, looked up): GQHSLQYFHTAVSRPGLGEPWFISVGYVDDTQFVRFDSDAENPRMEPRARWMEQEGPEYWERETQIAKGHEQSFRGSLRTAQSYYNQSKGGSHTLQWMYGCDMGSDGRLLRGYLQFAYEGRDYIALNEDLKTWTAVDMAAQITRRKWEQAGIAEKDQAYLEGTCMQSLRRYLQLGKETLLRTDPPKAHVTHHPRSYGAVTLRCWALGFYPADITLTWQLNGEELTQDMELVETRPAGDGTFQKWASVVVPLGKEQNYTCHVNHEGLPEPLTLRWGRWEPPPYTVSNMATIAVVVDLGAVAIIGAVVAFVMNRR
T1 sequence (b2m, looked up): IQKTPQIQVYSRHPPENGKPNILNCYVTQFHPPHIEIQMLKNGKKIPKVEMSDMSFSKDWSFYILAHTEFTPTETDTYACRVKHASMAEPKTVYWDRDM
Test: qPCR of surface-bound viral genomes on C57BL/6J T cells, 1 hr at 4 C, with against without PI-PLC pre-treatment

B1: Ark313 AAV capsid (AAV6 capsid variant with 454-VVNPAEG-460) (other)
chain: MAADGYLPDWLEDNLSEGIREWWDLKPGAPKPKANQQKQDDGRGLVLPGYKYLGPFNGLDKGEPVNAADAAALEHDKAYDQQLKAGDNPYLRYNHADAEFQERLQEDTSFGGNLGRAVFQAKKRVLEPFGLVEEGAKTAPGKKRPVEQSPQEPDSSSGIGKTGQQPAKKRLNFGQTGDSESVPDPQPLGEPPATPAAVGPTTMASGGGAPMADNNEGADGVGNASGNWHCDSTWLGDRVITTSTRTWALPTYNNHLYKQISSASTGASNDNHYFGYSTPWGYFDFNRFHCHFSPRDWQRLINNNWGFRPKRLNFKLFNIQVKEVTTNDGVTTIANNLTSTVQVFSDSEYQLPYVLGSAHQGCLPPFPADVFMIPQYGYLTLNNGSQAVGRSSFYCLEYFPSQMLRTGNNFTFSYTFEDVPFHSSYAHSQSLDRLMNPLIDQYLYYLNRTQNQSVVNPAEGLLFSRGSPAGMSVQPKNWLPGPCYRQQRVSKTKTDNNNSNFTWTGASKYNLNGRESIINPGTAMASHKDDKDKFFPMSGVMIFGKESAGASNTALDNVMITDEEEIKATNPVATERFGTVAVNLQSSSTDPATGDVHVMGALPGMVWQDRDVYLQGPIWAKIPHTDGHFHPSPLMGGFGLKHPPPQILIKNTPVPANPPAEFSATKFASFITQYSTGQVSVEIEWELQKENSKRWNPEVQYTSNYAKSANVDFTVDNNGLYTEPRPIGTRYLTRPL
  fold reduction in bound virus per cell after PI-PLC treatment (GPI cleavage): ~10 fold
